# Test results from patent US20240116985A1 (published 2024).
# Starred links: 1 amine or outer side, 2 acyl side, 3 side chain; linkers in the order of their positions; H or OH if unused. Positions of bridges follow the written chain, without caps; N, C: chain ends. Non-standard residues stand in square brackets, D forms with d. Primed or numbered codes have the meaning given here. B5(4) = 2,2-bis(4-pentenyl)glycine = 2-amino-2-(pent-4-en-1-yl)hept-6-enoic acid (stitching residue), C=CCCCC(CCCC=C)(N[*:1])C(=O)[*:2]; B5(5) = 2,2-bis(4-pentenyl)glycine, 2-amino-2-(pent-4-en-1-yl)hept-6-enoic acid (stitching residue), C=CCCCC(CCCC=C)(N[*:1])C(=O)[*:2]; SeN = (S)-5-(((allyloxy)carbonyl)(methyl)amino)-2-amino-2-methylpentanoic acid, C=CCOC(=O)N(C)CCC[C@](C)(N[*:1])C(=O)[*:2]; B5(19) = 2-amino-2-(pent-4-en-1-yl)hept-6-enoic acid (bis(4-pentenyl)glycine), C=CCCCC(CCCC=C)(N[*:1])C(=O)[*:2]; B5 = 2-amino-2-(pent-4-en-1-yl)hept-6-enoic acid, C=CCCCC(CCCC=C)(N[*:1])C(=O)[*:2]; Phe(3,4,5-F3) = N[C@@H](Cc1cc(F)c(F)c(F)c1)C(=O)O; Phe(3-Me) = Cc1cccc(C[C@H](N)C(=O)O)c1; αAllylPro = C=CC[C@@]1(C(=O)O)CCCN1; S8 = C=CCCCCCC[C@](C)(N)C(=O)O
# T1: full-length beta-Catenin (Uniprot ID P35222) (Homo sapiens (Human), UniProt P35222 1-781)
# T1 construct: Used full-length in the FP and AlphaScreen assays; also called B-Catenin; bCat
# T1 sequence: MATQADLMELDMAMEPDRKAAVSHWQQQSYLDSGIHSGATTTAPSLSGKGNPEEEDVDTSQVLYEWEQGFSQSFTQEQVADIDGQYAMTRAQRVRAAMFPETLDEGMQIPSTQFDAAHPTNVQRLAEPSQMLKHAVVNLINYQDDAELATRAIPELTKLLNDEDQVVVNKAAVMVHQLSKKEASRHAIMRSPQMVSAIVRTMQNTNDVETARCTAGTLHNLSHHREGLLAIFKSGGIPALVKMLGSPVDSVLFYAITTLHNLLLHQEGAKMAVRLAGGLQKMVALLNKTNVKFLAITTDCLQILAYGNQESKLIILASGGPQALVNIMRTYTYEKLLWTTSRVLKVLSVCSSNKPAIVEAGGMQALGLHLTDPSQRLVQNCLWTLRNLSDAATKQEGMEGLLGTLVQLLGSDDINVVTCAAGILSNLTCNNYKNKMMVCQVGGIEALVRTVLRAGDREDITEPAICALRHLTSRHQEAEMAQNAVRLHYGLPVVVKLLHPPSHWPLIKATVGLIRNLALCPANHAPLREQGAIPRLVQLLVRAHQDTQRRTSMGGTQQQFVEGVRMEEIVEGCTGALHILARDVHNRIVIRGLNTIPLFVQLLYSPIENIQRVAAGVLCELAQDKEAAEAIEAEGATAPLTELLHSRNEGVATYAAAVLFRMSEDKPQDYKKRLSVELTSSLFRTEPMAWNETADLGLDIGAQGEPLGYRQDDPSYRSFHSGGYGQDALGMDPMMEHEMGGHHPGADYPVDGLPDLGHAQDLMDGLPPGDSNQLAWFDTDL
# B1: I-189 (peptide)
# peptide: Ac-[αAllylPro]DI[B5(5)]DDAAFQ[SeN]FWH-NH2
# modifications: staple 1-4, 4-11; not fully specified; printed as Ac-PL3-Asp-Ile-B5-Asp-Asp-Ala-Ala-Phe-Gln-SeN-Phe-Trp-His-NH2
# notes: Stapled peptide composition
# B2: I-190 (peptide)
# peptide: Ac-[αAllylPro]DI[B5(5)]DDAAFQ[SeN]FWH-NH2
# modifications: staple 1-4, 4-11; not fully specified; printed as Ac-PL3-Asp-Ile-B5-Asp-Asp-Ala-Ala-Phe-Gln-SeN-Phe-Trp-His-NH2
# notes: Stapled peptide composition
# B3: I-180 (peptide)
# peptide: XDIXDEAAFQXFWQ
# modifications: not fully specified; As printed: Ac-PL3-Asp-Ile-B5-Asp-Glu-Ala-Ala-Phe-Gln-S8-Phe-Trp-Gln-NH2. N-terminal Ac; C-terminal amide; PL3 (1), B5 (4), S8 (11) stapled by olefin metathesis (PL3-B5 and B5-S8)
# notes: Stapled peptide composition; this is the earlier-eluting isomer composition
# B4: I-194 (peptide)
# peptide: Ac-[αAllylPro]DI[B5(19)]DEAAFQ[S8]FWA-NH2
# modifications: staple 1-4, 4-11
# notes: Stapled peptide composition
# B5: I-186 (peptide)
# peptide: XDAXDEAAFAXFWA
# modifications: not fully specified; As printed: Ac-PL3-Asp-Ala-B5-Asp-Glu-Ala-Ala-Phe-Ala-S8-Phe-Trp-Ala-NH2. N-terminal Ac; C-terminal amide; PL3 (1), B5 (4), S8 (11) stapled by olefin metathesis (PL3-B5 and B5-S8)
# notes: as for B3
# B6: I-212 (peptide)
# peptide: Ac-[αAllylPro]DA[B5(4)]DEAA[Phe(3,4,5-F3)]V[S8]FWQ-NH2
# modifications: staple 1-4, 4-11
# notes: Stapled peptide composition
# B7: I-211 (peptide)
# peptide: Ac-[αAllylPro]DA[B5(4)]DEAA[Phe(3,4,5-F3)]V[S8]FWQ-NH2
# modifications: staple 1-4, 4-11; not fully specified; printed as Ac-PL3-Asp-Ala-B5-Asp-Glu-Ala-Ala-345FF-Val-S8-Phe-Trp-Gln-NH2
# notes: Stapled peptide composition
# B8: I-179 (peptide)
# peptide: XDAXDEAAFQXFWH
# modifications: not fully specified; As printed: Ac-PL3-Asp-Ala-B5-Asp-Glu-Ala-Ala-Phe-Gln-S8-Phe-Trp-His-NH2. N-terminal Ac; C-terminal amide; PL3 (1), B5 (4), S8 (11) stapled by olefin metathesis (PL3-B5 and B5-S8)
# notes: Stapled peptide composition
# B9: I-177 (peptide)
# peptide: Ac-[αAllylPro]DI[B5(5)]DEAAFV[S8]FWH-NH2
# modifications: staple 1-4, 4-11
# notes: Stapled peptide composition
# B10: I-207 (peptide)
# peptide: Ac-[αAllylPro]DA[B5(4)]DEAA[Phe(3-Me)]V[S8]FWQ-NH2
# modifications: staple 1-4, 4-11
# notes: Stapled peptide composition
# B11: I-176 (peptide)
# peptide: Ac-[αAllylPro]DI[B5(5)]DEAAFV[S8]FWH-NH2
# modifications: staple 1-4, 4-11
# notes: Stapled peptide composition
# B12: I-188 (peptide)
# peptide: Ac-[αAllylPro]DI[B5(5)]DDAAFQ[SeN]FWH-NH2
# modifications: staple 1-4, 4-11; not fully specified; printed as Ac-PL3-Asp-Ile-B5-Asp-Asp-Ala-Ala-Phe-Gln-SeN-Phe-Trp-His-NH2
# notes: Stapled peptide composition
# B13: I-182 (peptide)
# peptide: Ac-[αAllylPro]DA[B5(19)]D[dE]AAFV[S8]FWQ-NH2
# modifications: staple 1-4, 4-11
# notes: Stapled peptide composition
# B14: I-199 (peptide)
# peptide: Ac-[αAllylPro]NA[B5]DEAAFV[S8]FWQ-NH2
# modifications: staple 1-4, 4-11
# notes: as for B3
# B15: I-198 (peptide)
# peptide: Ac-[αAllylPro]DA[B5]NEAAFV[S8]FWQ-NH2
# modifications: staple 1-4, 4-11
# notes: Stapled peptide composition
# B16: I-200 (peptide)
# peptide: Ac-[αAllylPro]NA[B5(4)]DEAAFV[S8]FWQ-NH2
# modifications: staple 1-4, 4-11
# notes: Stapled peptide composition; this is the later-eluting isomer composition
# Biological target: T1, full-length beta-Catenin (Uniprot ID …)
# Experiment: fluorescence polarization competition; full-length beta-catenin + 5FAM-TCF4(10-53) probe as competitor; peptide titrated
# Experimental: (§1) The plate was incubated protected from light for 60 minutes at 20° C. prior to read. Reads were performed on a CLARIOstar plate reader (BMG Labtech) in duplicate, and data were fitted to a 1:1 binding model with hill slope using an in-house script. All provided concentrations are final concentrations.
row,EC50 [nM],Binder
1,1600,B1
2,696,B2
3,561,B3
4,1010,B4
5,5000,B5
6,5000,B6
7,5000,B7
8,1630,B8
9,1990,B9
10,1740,B10
11,1990,B11
12,1600,B12
13,2800,B13
14,5000,B14
15,5000,B15
16,5000,B16

# Biological target: T1, full-length beta-Catenin (Uniprot ID …)
# Experiment: AlphaScreen (nickel chelate) competition; full-length beta-catenin + biotin-TCF4(10-53) probe as competitor; peptide titrated
# Experimental: as §1, with “Equal volume of the titrated peptide was added to the” for “The”, “and” for “was”, “incubated for 15 minutes at 20° C. Then 4 uL of donor and 4 uL acceptor beads at 10 ug/mL were added to the plate, for a 16 uL reaction pool and” for “incubated”
row,EC50 [nM],Binder
1,156,B1
2,94,B2
3,88,B3
4,105,B4
5,518,B5
6,152,B8
7,549,B9
8,143,B10
9,549,B11
10,156,B12
11,750,B13
12,538,B15
